Laboratory results reported in patent publication US20200405873A1, “PYRROLOBENZODIAZEPINE-ANTIBODY CONJUGATES” (MEDIMMUNE LIMITED, priority 2015, published 2020).

Biological target: T1, human CD25 (Homo sapiens, UniProt P01589)
T1 sequence (P01589 22-272): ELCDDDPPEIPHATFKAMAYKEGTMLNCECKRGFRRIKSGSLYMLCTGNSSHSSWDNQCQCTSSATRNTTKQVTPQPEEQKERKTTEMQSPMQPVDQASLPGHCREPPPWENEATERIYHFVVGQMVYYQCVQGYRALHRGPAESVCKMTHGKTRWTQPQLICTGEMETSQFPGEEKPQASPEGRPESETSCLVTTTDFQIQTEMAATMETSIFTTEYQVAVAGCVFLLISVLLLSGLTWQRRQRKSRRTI
Assay: Binding of ADCT-301 to human CD25
Details: stated in words only

## ADCT-301: ADC of human anti-CD25 monoclonal antibody HuMax-TAC conjugated through a cleavable linker to PBD dimer cytotoxin SG3199
  affinity to human CD25: picomolar
